The values that follow come from patent US20250034250A1 (published 2025).

The target of test [1] is T1, extracellular domain of CD33^ΔE2 with a 6-histidine-avidin tag (hsCD33_ΔE2-His-Avi) (human).
T1 construct: The Biacore text says only 'the corresponding soluble ectodomains'; also called soluble CD33^ΔE2 ectodomain; MDT000239
T1 chain: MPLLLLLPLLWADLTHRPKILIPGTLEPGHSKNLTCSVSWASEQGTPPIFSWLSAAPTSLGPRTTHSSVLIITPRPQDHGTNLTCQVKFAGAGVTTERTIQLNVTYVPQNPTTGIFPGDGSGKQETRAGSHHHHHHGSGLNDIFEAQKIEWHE
The experiment in a line: Biacore SPR, purified antibody and corresponding soluble ectodomain. From the text:
(§1) FIGS. 4A-4C illustrate the expression (FIGS. 4A, 4B) and characterization of two CD33^FL specific (8F5 and 5D12) and one CD33^ΔE2 specific (12B12) antibodies. Affinities for these antibodies (shown in FIG. 4C) were characterized by Biacore (Biacore, A&G Pharmaceutical, Inc., Columbia, MD) using purified antibodies and the corresponding soluble ectodomains.
A general note: In SPR one partner is held on a chip, and binding of the other changes the refractive index at the surface.

Test [2] addresses T2, ΔE2 version of human CD33 (CD33^ΔE2) expressed on cells (human, UniProt P20138 1-364).
T2 construct: Expressed on engineered REH sublines; also called CD33ΔE2 isoform
The experiment in a line: flow cytometry on engineered REH cells. Background: A flow cytometer gives signals particle by particle.

In test [3] the target is T3, human full-length CD33 (CD33^FL) expressed on cells (human, UniProt P20138 18-364).
T3 construct: Expressed on engineered REH (or RS4;11) sublines
Briefly: flow cytometry on REH cells expressing CD33^FL.

Test [4] deals with T2, ΔE2 version of human CD33 (CD33^ΔE2) …. Briefly: flow cytometry on REH cells expressing CD33^ΔE2. The source says: FIG. 6 illustrates flow cytometry binding assay characterization of CD33^ΔE2 -specific CD33 antibodies. […] Antibodies specific for CD33^ΔE2 have not previously been described reliably in the literature. The herein-described CD33^ΔE2 specific antibodies will be useful, including for determining expression profiles of this isoform across healthy and diseased individuals. REH=human CD33^neg lymphoid cells.

Test [5] shares this target. The experiment in a line: flow cytometry on REH subline expressing CD33^ΔE2.
The target in test [6] is T3, human full-length CD33 (CD33^FL) …. Briefly: flow cytometry on REH subline expressing CD33^FL.
For test [7] the target is unchanged. Briefly: flow cytometry on REH cells, legend of FIG. 7.
For test [8], the target named is T4, extracellular domain of CD33^FL with a 6-histidine-avidin tag (hsCD33-His-Avi) (human, UniProt P20138 18-256).
T4 construct: The Biacore text says only 'the corresponding soluble ectodomains'; it includes the native signal peptide and the His-Avi tag, and no limits are stated on it; also called soluble CD33^FL ectodomain; MDT000235
The experiment in a line: Biacore SPR, purified antibody and corresponding soluble ectodomain.
Excerpt: as §1

In test [9] the target is T4, extracellular domain of CD33^FL with a …. Briefly: Biacore SPR, value quoted from FIG. 4C.
Excerpt: as §1

By Kd is commonly meant the constant that tells how readily two partners part at equilibrium.

Numbering of substitutions follows the chain as printed.

T3 sequence (P20138 18-364 limits assumed): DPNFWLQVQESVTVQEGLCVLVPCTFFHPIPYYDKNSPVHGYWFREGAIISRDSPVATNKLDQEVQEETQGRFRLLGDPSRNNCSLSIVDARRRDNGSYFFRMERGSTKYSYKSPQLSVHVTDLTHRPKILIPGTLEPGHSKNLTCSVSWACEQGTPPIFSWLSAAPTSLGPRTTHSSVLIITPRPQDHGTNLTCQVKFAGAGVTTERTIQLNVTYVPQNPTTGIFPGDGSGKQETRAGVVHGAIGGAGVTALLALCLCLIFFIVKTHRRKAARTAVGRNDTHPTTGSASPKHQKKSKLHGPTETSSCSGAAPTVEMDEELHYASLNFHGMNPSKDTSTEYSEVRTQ

B1: anti-CD33 antibody 12B12 (antibody, V domains shown)
VH: EVQLQQSGTVLARPGASVKMSCKASGYTFTTYWMHWIKQSPGQGLEWIGAIYPGNSDTSYNQKFKGKAKLTAVTSASTAYMELSSLTNEDSAVYYCEIYDGYHFIYWGQGTTLTVSS
VL: DIVMTQAAFSNPVTLGTSASISCRSSQSLLHSNGITYLYWYLQKPGQSPQLLIYQMSNLASGVPDRFSSSGSGTDFTLRISRVEAEDVGVYYCAQNLELPPTFGGGTKLEIKR
notes: Mouse IgG2b
In test [1], B1 came in with a Kd of 8 nM.

B2: anti-CD33 antibody 11D5 (antibody, V domains shown)
VH: EVQFQQSETVLARPGTSVKLSCKASGYTFTSYWMHWLKQRPGQGLEWIGAIYCGNSDTSYNQKFKGKAKLTAVTSATTAYMELSSLTNEDSAVYYCKIYDGYHFDYWGQGTTLTVSS
VL: B1 VL with S26N, Q27K
notes: Mouse IgG1
On to B2, for which the binding result in test [2] was “binds”.

B3: anti-CD33 antibody 1H7 (antibody, V domains shown)
VH: QVQLQQSGAELVKPGASVKISCKASGYAFSNYWMNWVKQRPGKGLEWIGQINPGDGDTNYNGKFKGKATLTADKSSSTAYMQLSSLTSEDSAVYFCAREDRDYFDYWGQGTTLTVSS
VL: DIQMTQTTSSLSASLGDRVTISCRASQDINYYLNWYQQKPDGTVKLLIYYSSRLHSGVPSRFSGSGSGTDFSLTISNLEQEDIATYFCQQDDALPYTFGGGTKLEIKR
notes: Raised in mice; The entries include a secretion leader; also called CD33PAN antibody
As for B3, the binding result in test [3] and in test [4] was “binds” each time.

B4: anti-CD33 antibody 11D11 (antibody, V domains shown)
VH: EVNLVESGGGLVQSGRSLRLSCATSGFTFSDFYMEWVRQAPGKGLEWIAASRNKANDYTTEYKASVKGRFIVSRDTSQSILYLQMNALRAEDTAIYYCTRDTGPMDYWGQGTSVTVSS
VL: B3 VL with N30S, Y31N, S51T, F71Y, D91G, D92S, A93T, Y96P
notes: Mouse IgG1
On to B4, for which the binding result in [4] is listed as “binds”.

B5: anti-CD33 antibody 2D5 (antibody, V domains shown)
VH: QVQLQQSGAELVRPGASVTLSCKASGYTFTDYDMHWVKQTPVHGLEWIGAIDPETGGTAYNQNFKGKAILTVDKSSRIAYMELRSLTSEDSAVFYCTSDYDYFGVWGTGTTVTVSS
VL: DIVMTQSQKFMSTSVGDRVSVTCKASQNVGTNVVWYHKKPGQSPKGLIYSASDRYSGVPDRFTGSGSGTDFTLTINNVQSEDLAEYFCQQYNIYPYTFGGGTKLEIKR
notes: the antibody was raised in mice
B5: the binding result in test [5] and in [6] was “binds” throughout.

B6: anti-CD33 antibody 5E10.7 (antibody, V domains shown)
VH: QVQLQQPGAEFVKPGASVKLSCKASGYTFTSYWMQWVKQRPGQGLEWIGEIDSSDSYTNYNQKFKGMATLTVDRSSSTAYMQLSSLTSEDSAVYYCARSRPYDWFPYWGQGTLVTVST
VL: DIKMTQSPSSIYASLGERVTITCKASQDIKSYLSWYQQKPRKSPKTLIYYATTLADGVPSRFSGSGSGQDFSLTISSLESDDTATYYCLHHSESPWTFGGGTKLEIKR
notes: Mouse IgG1
With B6, the binding result in test [7] and in [4] was “binds” each time.

B7: anti-CD33 antibody 5D12 (antibody, V domains shown)
VH: QVQLQQSGAEVVKPGASVKISCRASGYAFSNYWMNWVKQRPGKGLEWIGQIYPGNFNTDYNGQFKGKATLTVDKSSNTAYMQLSSLTSEDSAVYFCARFFDFGAYFTLDYWGQGTSVTVSS
VL: B6 VL with T22N, R41W, F71Y, S92G, G100E
notes: Mouse IgG2a
B7: the Kd in [8] came out at 0.112 nM; in test [9] it was 0.122 nM.

B8: anti-CD33 antibody 8F5 (antibody, mouse IgG2a, kappa, V domains shown)
VH: EVKLVESGGGLVQPGGSLKLSCAASGFTFSDFYMYWVRQTPEKRLEWVAFISNAGVTTYYPDTVEGRFTISRDNAKNTLYLQMSRLMSEDTAMYYCTKSDYDGAWFPYWGQGTLVTVSA
VL: DIVMSQSPSSLPVSVGEKVTLSCKSSQSLLYSRNQYNFLAWYQQRPGQSPKLLIYWASTRESGVPDRFTGSGSGTDFTLTISSVKAEDLAVYYCQQYYSYPYTFGGGTKLEIKR
notes: Mouse IgG2a
B8 came in with a dissociation constant Kd in [8] of 8 nM.

B9: anti-CD33 antibody 7E7 (antibody, V domains shown)
VH: QVTLKESGPGILQPSQTLSLTCSFSGFSLNSYGMGIGWIRQPSGKGLEWLAHIWWDDNKYYKPDLKSRLTVSKDTSKNQVFLKIANVDTTDTATYFCARDGGYSLFAYWGQGTLVTVSV
VL: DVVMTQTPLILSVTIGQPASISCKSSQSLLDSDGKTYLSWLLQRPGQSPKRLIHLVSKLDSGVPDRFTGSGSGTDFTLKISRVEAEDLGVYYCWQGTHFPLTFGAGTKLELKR
notes: Mouse IgG1
Take B9: the figures for the binding result in test [3] and in [4] were “no binding” and “binds”, respectively.
